The values below are quoted from earlier work in publication PMC5709052.

Like-named read-outs stand apart in the source and are kept apart here.

Series [1] has as its target CYP102A1 reductase domain (BMR) reductase domain (Priestia megaterium) (UniProt P14779).
For series [2] the target is unchanged. The series is described as follows: absorption spectroscopy titration.
Series [3] has the same target. This is another data set of the same source.
The target is the same in series [4]. As to the kind of experiment: absorption spectroscopy titration. The source holds these as a separate data set.

UniProt P14779, sequence (P14779 473-1049): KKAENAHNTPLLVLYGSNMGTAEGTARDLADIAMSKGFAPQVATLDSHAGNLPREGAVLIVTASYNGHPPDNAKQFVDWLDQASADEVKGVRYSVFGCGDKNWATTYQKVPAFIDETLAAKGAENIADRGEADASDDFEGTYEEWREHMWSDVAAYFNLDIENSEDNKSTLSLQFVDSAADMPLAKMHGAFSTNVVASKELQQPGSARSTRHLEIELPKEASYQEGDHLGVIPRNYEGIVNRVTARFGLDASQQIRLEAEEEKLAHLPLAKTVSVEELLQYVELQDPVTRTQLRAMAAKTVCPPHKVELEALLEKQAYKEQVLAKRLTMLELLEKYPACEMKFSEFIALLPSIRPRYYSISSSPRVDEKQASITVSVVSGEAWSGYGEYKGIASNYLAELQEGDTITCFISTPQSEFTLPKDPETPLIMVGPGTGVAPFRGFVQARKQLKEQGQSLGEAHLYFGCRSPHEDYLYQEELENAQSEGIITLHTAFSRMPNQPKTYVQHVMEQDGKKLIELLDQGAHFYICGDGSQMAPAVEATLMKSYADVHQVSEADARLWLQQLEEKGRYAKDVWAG

With CYP2B4 (from UniProt P00178), in series [1], the Kd (usually a measure of binding affinity in units of concentration) is 370 nM.
On to CYP3A4 (from UniProt P08684), for which the Kd in series [2] was 140 nM; in series [3], 480 nM; in series [4], 100 nM.
